Data on 3 compounds can be found in patent US20260183405A1, “SMALL MOLECULE-DRUG-CONJUGATES CLEAVABLE IN A TUMOR MICROENVIRONMENT” (priority 2022, published 2026).

Read-outs that look alike come from different tables or passages of the source.

Data set [1] can be described thus: Pharmacokinetics in rat after intravenous administration. It counts as in vivo. Conditions: plasma, male rats, intravenous bolus 0.5 mg/kg; for clearance: read-out: CL plasma; for Vd: read-out: VSS. The procedure:
Male rats (n=3) were given an intravenous 0.5 mg/kg bolus dose of test article dissolved in plasma with 1% DMSO and 2% ethanol. Serial blood samples were collected up to 24 hours post-dose. Plasma was harvested from blood samples and stored frozen until sample analysis. Test article plasma concentrations were analyzed by LC/MS/MS. Pharmacokinetic parameters were calculated using non-compartmental analysis.

Data set [2] can be described thus: Stability in human plasma. It counts as in vitro ADME. Particulars: 37° C., percent area of the initial compound at t0 (HPLC), read-out: Stability human plasma after 4 h. The method, then: (§1) 1 mg of the respective test compound of is dissolved in a mixture of 1.5 mL dimethylsulfoxide and 1 ml water. For complete dissolution, the HPLC vial is shaken and treated with an ultrasound. 500 μl of this solution is added to 0.5 mL of plasma with vortexing at a temperature of 37° C. Aliquots (10 μL each) are taken at respective time points and analyzed by HPLC to determine the amount of the test compound. All data is given as percent area of the initial compound at to.

A short description of another data set: Stability in buffer. Type of data set: physicochemical. Particulars: HPLC peak area in percentage. The procedure: 0.15 mg of the test compound are solved in 0.1 ml dimethylsulfoxide and 0.4 ml acetonitrile. For complete dissolution the HPLC vial with the sample solution is shaken and sonicated. Then 1.0 ml of the respective buffer solution is added, and the sample is vortexed. The sample solution is analysed by HPLC to determine the amount of the test compound and up to two byproducts at a particular time over a period of 24 h at 37° C. to values result from a sample immediately taken after vortexing with buffer at RT. The peak areas (in percentage) are used for quantification.

The next data set deals with T1, human Elastase (Homo sapiens, UniProt P08246).
T1 sequence (P08246 30-267): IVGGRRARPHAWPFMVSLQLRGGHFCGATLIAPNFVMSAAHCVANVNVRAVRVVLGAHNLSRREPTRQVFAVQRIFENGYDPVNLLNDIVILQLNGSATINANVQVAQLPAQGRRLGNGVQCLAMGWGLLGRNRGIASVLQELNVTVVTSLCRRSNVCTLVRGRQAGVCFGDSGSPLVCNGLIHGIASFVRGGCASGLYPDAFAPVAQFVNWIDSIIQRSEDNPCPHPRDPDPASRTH
Put plainly: Elastase cleavability test. Type of data set: biochemical. Conditions: 5 μM test compound, 1 h at 37° C. The procedure:
The test compound was added to buffer (150 mM NaCl, 10 mM CaCl2, 0.05% BSA) to a final concentration of 5 μM (0.5% DMSO). The reaction was started by adding different concentrations of human Elastase (0, 20, 40, 60 nM) to the reaction vials. After incubation for 1 h at 37° C., the enzymatic reaction was stopped by precipitation in 50% ACN. Subsequently, the samples were subjected to HPLC-MS analysis to determine the concentration of test compound and of its metabolite.

The next data set in a line: Stability in rat plasma. Type of data set: in vitro ADME. Conditions: 37° C., percent area of the initial compound at t0 (HPLC), read-out: Stability rat plasma after 4 h. The method, then: as §1
Another data set concerns NCI-H292. As to the kind of experiment: Cytotoxicity in vitro in the presence and absence of elastase (MTT assay). Conditions: NCI-H292 cells, 72 h incubation. It counts as cell-based. In short, it runs like this: (§2)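 After overnight-scale settling (24 h) and medium exchange, compound is added with or without 10 nM elastase and incubated 72 h. Viability is read by MTT absorbance at 570 nm, and IC50 values are taken from dose-response curves.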
(Tetrazolium assays rely on reduction of a dye to a coloured formazan, in cell work by metabolically active cells.)

Another data set relates to 786-O. The data set is described as above. It counts as cell-based. Particulars: 786-O cells, 72 h incubation. In outline:
as §2

The test system of the next data set is HT29. Described as above. It counts as cell-based. Conditions: HT29 cells, 72 h incubation. In outline: as §2
The subject of another data set is SUM149PT. The description is as above. Type of data set: cell-based. Conditions: SUM149PT cells, 72 h incubation. In outline: as §2
The mark [3] stands for this setting: buffer pH 4, 37° C., read-out: Stability buffer pH 4 after 24 h.
Setting [4] is: buffer pH 7.4, 37° C., read-out: Stability buffer pH 7.4 after 24 h.
Where [5] appears, read: compound alone, read-out: IC50 without neutrophil elastase.
The mark [6] stands for this setting: with 10 nM elastase (NE), read-out: IC50 with neutrophil elastase.

As a reminder, the AUC is the area under the concentration-time curve, a measure of exposure. Lower therefore signals low exposure. The half-life is the time needed for the level to fall by half in the phase considered. A higher half-life goes with slow decline. For the compound `CCCNC(=O)Nc1cccc(S(=O)(=O)Nc2cccc([C@@H](CC(=O)O)NC(=O)Nc3ccc(NC(=O)NCCOCCOCCOCCC(=O)N[C@@H](CC(=O)O)C(=O)N4CCC[C@H]4C(=O)N[C@H](C(=O)O[C@@H](c4ccccc4)[C@@H](C)NC(=O)[C@H](C)C(OC)[C@@H]4CCCN4C(=O)CC(OC)[C@H]([C@@H](C)CC)N(C)C(=O)[C@@H](NC(=O)[C@@H](NC)C(C)C)C(C)C)C(C)C)cc3)c2)c1` (some centres unmarked) [Compound 13], in data set [1], the AUC is 1000 to 10000 ng·h/mL, the half-life was 1 to 5 h, the clearance was 0.5 to 5 mL/min/kg and the Vd is 0.1 to 0.3 L/kg. Besides, the remaining at 4 h, 0.2 mg/mL in data set [2] amounted to 100%. Also, in “Stability in buffer” (setting [3]), the remaining at 24 h, 0.1 mg/mL turned out to be 92%. Further, the remaining at 24 h, 0.1 mg/mL in “Stability in buffer” (setting [4]) came to 100%. Also, on human Elastase (Elastase Concentration 0 nM), the “Payload release after 1 h” value is “D (D = <1%)”. For the same compound, the “Payload release after 1 h” value on human Elastase (Elastase Concentration 20 nM) is reported as “A (A = >70%)”. In “Stability in rat plasma”, the remaining at 4 h, 0.2 mg/mL is 100%.

By IC50 is commonly meant the concentration that gives 50% inhibition. For `CCCNC(=O)Nc1cccc(S(=O)(=O)Nc2cccc([C@@H](CC(=O)O)NC(=O)Nc3ccc(NC(=O)NCCOCCOCCOCCC(=O)N[C@@H](CC(N)=O)C(=O)N4CCC[C@H]4C(=O)N[C@H](C(=O)NCCCN(C(=O)CO)[C@@H](c4cc(-c5cc(F)ccc5F)cn4Cc4ccccc4)C(C)(C)C)C(C)C)cc3)c2)c1` [Compound 17, sodium N^2-(14-{4-[({(1R)-2-carboxylato-1-[3-({3-[(propylcarbamoyl)amino]benzene-1-sulfonyl}amino)phenyl]ethyl}carbamoyl)amino]anilino}-14-oxo-4,7,10-trioxa-13-azatetradecanan-1-oyl)-L-asparaginyl-L-prolyl-N-{3-[{(1R)-1-[1-benzyl-4-(2,5-difluorophenyl)-1H-pyrrol-2-yl]-2,2-dimethylpropyl}(hydroxyacetyl)amino]propyl}-L-valinamide], the IC50 in the data set with NCI-H292 (setting [5]) was 100 to 999 nM; in the data set with NCI-H292 (setting [6]), 1 to 9.9 nM; with 786-O (setting [5]), above 1000 nM; with 786-O (setting [6]), 1 to 9.9 nM; in the data set with HT29 (setting [5]), above 1000 nM; with HT29 (setting [6]), 1 to 9.9 nM. Also, the IC50 in the data set on SUM149PT (setting [5]) was in the range of 100 to 999 nM; in the data set with SUM149PT (setting [6]), 0.1 to 1 nM. Moreover, in [1], the AUC fell in the range of 1000 to 10000 ng·h/mL. Moreover, the half-life in data set [1] lay within 5 to 10 h. Also, the clearance in data set [1] is 0.5 to 5 mL/min/kg. Moreover, the Vd in [1] was in the range of 0.3 to 0.9 L/kg. In addition, the remaining at 4 h, 0.2 mg/mL (in data set [2]; in “Stability in rat plasma”) was 100% throughout. In addition, the remaining at 24 h, 0.1 mg/mL in “Stability in buffer” (setting [3]) turned out to be 100%. For the same compound, the “Stability buffer pH 7.4 after 24 h” value in “Stability in buffer” (buffer pH 7.4, 37° C.) is recorded as 100%. For the same compound, the “Payload release after 1 h” value at human Elastase (Elastase Concentration 0 nM) was “D (D = <1%)”; on human Elastase (Elastase Concentration 20 nM), “C (C = >1%)”.

In the case of `CCCNC(=O)Nc1cccc(S(=O)(=O)Nc2cccc([C@@H](CC(=O)O)NC(=O)Nc3ccc(NC(=O)NCCOCCOCCOCCC(=O)N[C@@H](CC(=O)O)C(=O)N4CCC[C@H]4C(=O)N[C@H](C(=O)N[C@@H](CCN(C(=O)CO)[C@@H](c4cc(-c5cc(F)ccc5F)cn4Cc4ccccc4)C(C)(C)C)C(=O)NC)C(C)C)cc3)c2)c1` [Compound 26, disodium 1-[(2S)-2-(carboxylatomethyl)-17-{4-[({(1R)-2-carboxylato-1-[3-({3-[(propylcarbamoyl)amino]benzene-1-sulfonyl}amino)phenyl]ethyl}carbamoyl)amino]anilino}-4,17-dioxo-7,10,13-trioxa-3,16-diazaheptadecanan-1-oyl]-L-prolyl-N-[(2S)-4-[{(1R)-1-[1-benzyl-4-(2,5-difluorophenyl)-1H-pyrrol-2-yl]-2,2-dimethylpropyl}(hydroxyacetyl)amino]-1-(methylamino)-1-oxobutan-2-yl]-L-valinamide], the half-maximal inhibitory concentration (IC50) was above 1000 nM with NCI-H292 (setting [5]); 1 to 9.9 nM with NCI-H292 (setting [6]); above 1000 nM in the data set with HT29 (setting [5]); 1 to 9.9 nM with HT29 (setting [6]); above 1000 nM in the data set on SUM149PT (setting [5]); 0.1 to 1 nM with SUM149PT (setting [6]). The AUC in data set [1] was in the range of 1000 to 10000 ng·h/mL. The compound further yielded a half-life in data set [1] below 0.5 h. Further, the clearance in data set [1] lay in the range of 0.5 to 5 mL/min/kg. The Vd in data set [1] was 0.01 to 0.1 L/kg. Besides, the remaining at 4 h, 0.2 mg/mL (in data set [2]; in the data set “Stability in rat plasma”) was 100% each time. The remaining at 24 h, 0.1 mg/mL in “Stability in buffer” (setting [3]) worked out at 94%; in “Stability in buffer” (setting [4]), 100%. Besides, the entries for the “Payload release after 1 h” value at human Elastase (Elastase Concentration 0 nM) and on human Elastase (Elastase Concentration 20 nM) were “D (D = <1%)” and “B (B = >20%)”, respectively.
